According to paper PMC2978023:

Legend:
[1] = molecular target: recombinant purified integrin αMβ2 (UniProt P11215); test: ELISA
[2] = molecular target: recombinant purified β2 integrin subunit (UniProt P05107); test: ELISA
[3] = molecular target: recombinant purified αM integrin subunit (UniProt P11215); test: ELISA
[4] = molecular target: wild-type αMβ2 on transfected K562 cells (UniProt P11215); test: flow cytometry on cells
αM(1119Δ)β2 = αM(1119Δ)β2 (UniProt P11215); test: flow cytometry on cells
αM/αLβ2 chimera = αM/αLβ2 chimera (UniProt P05107); test: flow cytometry on cells
αMβ2(728Δ) = αMβ2(728Δ) (UniProt P11215); test: flow cytometry on cells
[5] = molecular target: integrin αMβ2 on human PMNs (human (endogenous in PMNs)) (UniProt P11215)

Sequence of Ang(1–4), angiostatin composed of four kringle domains of Plg (P00747 20-810): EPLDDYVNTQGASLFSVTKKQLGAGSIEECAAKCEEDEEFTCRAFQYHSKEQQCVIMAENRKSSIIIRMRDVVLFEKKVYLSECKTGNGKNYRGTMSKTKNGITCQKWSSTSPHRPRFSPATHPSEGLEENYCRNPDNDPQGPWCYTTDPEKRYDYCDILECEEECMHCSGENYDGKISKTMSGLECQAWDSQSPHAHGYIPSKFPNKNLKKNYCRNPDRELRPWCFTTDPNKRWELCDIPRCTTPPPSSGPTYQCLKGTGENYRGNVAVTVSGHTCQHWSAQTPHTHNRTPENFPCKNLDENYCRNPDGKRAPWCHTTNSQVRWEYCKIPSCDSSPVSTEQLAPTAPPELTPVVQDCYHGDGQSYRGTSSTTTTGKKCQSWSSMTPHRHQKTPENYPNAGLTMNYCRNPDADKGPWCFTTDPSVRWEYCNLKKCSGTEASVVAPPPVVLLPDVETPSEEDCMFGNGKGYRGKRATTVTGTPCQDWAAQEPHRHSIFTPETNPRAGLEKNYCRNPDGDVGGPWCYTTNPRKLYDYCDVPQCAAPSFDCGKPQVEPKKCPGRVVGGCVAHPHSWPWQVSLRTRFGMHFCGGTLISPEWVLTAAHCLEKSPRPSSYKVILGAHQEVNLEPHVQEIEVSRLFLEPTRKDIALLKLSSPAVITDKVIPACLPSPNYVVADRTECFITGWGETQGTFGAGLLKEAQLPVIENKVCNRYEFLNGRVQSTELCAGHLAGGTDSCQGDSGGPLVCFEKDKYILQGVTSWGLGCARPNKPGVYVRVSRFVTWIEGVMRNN

| Kd [1] | Kd [2] | Kd [3] | MFI of bound ligand [4] | MFI of bound ligand (αM(1119Δ)β2) | MFI of bound ligand (αM/αLβ2 chimera) | MFI of bound ligand (αMβ2(728Δ)) | PMN early/late apoptosis (% annexin V+ cells), 16 h, Plg 1 μM with NIF (50 nM) [5] | Substance |
| --- | --- | --- | --- | --- | --- | --- | --- | --- |
| 500 nM | > 100000 nM | 400 nM | – | – | – | – | – | Ang(1–4), angiostatin composed of four kringle domains of Plg (from UniProt P00747 20-810) (domain or fragment) |
| – | 500 nM | 100 nM | 130 MFI | 145 MFI | 135 MFI | 152 MFI | 90% | plasminogen (Glutamic Plg) (ligand) |
| – | – | – | – | – | 129 MFI | – | – | human fibrinogen (from UniProt P02671-2 20-644; P02675 31-491; P02679-2 27-437) (complex) |
